Measurements from patent US20250215092A1 (ZHEJIANG NANOMAB TECHNOLOGY CENTER, published 2025).
One block for each binder: values may come before it.

Key:
[1] = biological target: T1, EGFR-D1D2 (L25-A310, P00533-1 (uniprot)) his tag antigen (human, UniProt P00533 25-310); assay: ELISA: EGFR-D1D2 his tag antigen coated at 0.5 µg/mL, antibody at 2000, 200, 20, 2 nM, HRP goat anti-human IgG Fc, OD450
T1 construct: range 25-310; also called I+II domain protein; EGFR-D1D2 protein; not shown: His tag
Protocol: (§1) (2) Protein Binding Epitope Analysis: ELISA was used to determine the binding of VHH-IgG4 antibody to each domain of EGFR extracellular protein. Briefly, EGFR his tag protein, and EGFR-V3-his tag antigen protein were diluted to 1 μg/mL, EGFR-D1D2 (L25-A310, P00533-1 (uniprot)), and EGFR-D4 (F481-S645, P00533-1 (uniprot)) his tag antigen were diluted to 0.5 μg/mL, and each well of an ELISA plate was coated with […] antigen and incubated overnight at 4° C. The next day, the plates were washed twice with PBST (added with 0.5% TWEEN-20), then blocked with 3% BSA at 37° C. for 1.5 h, and then washed twice with PBST. Then, the antibody to be tested was diluted to 50 nM, 5 nM, 0.5 nM, 0.05 nM, and added to the wells coated with EGFR his tag protein or EGFR-V3-his tag antigen at 100 µL/well, respectively. The antibody was diluted to 2000 nM, 200 nM, 20 nM, 2 nM, and added to the wells coated with EGFR his tag protein or EGFR-V3-his tag antigen at 100 µL/well, respectively. The ELISA plates were incubated at 37° C. for 1 h. The plates were then washed three times with PBST, and then 100 μL HRP labeled Goat anti human IgG Fc antibody (1:10000, Bethyl) was added into each well, and incubated at 37° C. for another 40 min. After washing the plates four times with PBST, 100 μL of TMB substrate was added to each well, and the reaction was allowed to proceed for 3-5 min. The reaction was stopped by adding 100 μL of 3N hydrochloric acid per well. After stopping the reaction, the optical density at 450/650 nm was measured using a Tecan microplate reader.

[2] = biological target: T2, human EGFR.His antigen (Acro, Cat #EGR-H522a) (human, UniProt P00533 25-645); assay: SPR, antibody captured on protein A, EGFR.His in flow
T2 construct: extracellular domain; Bought protein; also called EGFR his tag protein; full-length EGFR extracellular domain protein; not shown: His tag
Protocol: The binding kinetics and affinity of candidate antibody to human EGFR.His antigen were determined using surface plasmon resonance (SPR). The purified antibody was flowed through the sensor chips pre-immobilized with protein A, and the antibody was captured by protein A. Then five different concentrations of EGFR.His protein were used as the mobile phase, and the binding time and dissociation time were […], respectively. The binding rate (kon), dissociation rate (koff), and equilibrium constant (kD) were analyzed using Biacore Evaluation Software 2.0 (GE). EC225, an antibody that binds to region III of human EGFR, was selected as a positive control (sequence source https.//go.drugbank.com/drugs/DB00002).

[3] = biological target: T3, EGFR on SKOV3 and Aspc-1 tumor cells (human, UniProt P00533); assay: flow cytometry on Aspc-1 tumor cells, anti-human IgG PE, MFI, curve fit; unit from the concentration axis and paragraph 62; no upper plateau within the range shown [table]
T3 construct: endogenous, on the cell surface; the cell line is named under assay; also called tumor cell EGFR
Protocol: (§2) Two kinds of tumor cells, SKOV3 and Aspc-1, expressing EGFR were respectively plated in 96 well plates, with 3×10⁵ cells per well, and then the tumor cells were incubated with gradient diluted VHH-IgG4 antibody. After incubation on ice for half an hour, anti human IgG PE (Jackson Immuno Research, Code: 109-117-008, Lot:145501) was added for incubation, and then CytoFLEX flow cytometry was used for detection. The EC50 of the antibody was calculated by curve fitting.

[4] = biological target: T3, EGFR on SKOV3 and Aspc-1 tumor cells; assay: flow cytometry on SKOV3 tumor cells, anti-human IgG PE, MFI, curve fit; unit from the concentration axis and paragraph 62 [table]
Protocol: as §2

[5] = biological target: T4, Region III of EGFR expressed on HEK293T cells (human, UniProt P00533); assay: flow cytometry on HEK293T cells expressing EGFR region III, anti-human IgG PE, MFI, curve fit; unit from the concentration axis and paragraph 62 [table]
T4 construct: also called HEK293T EGFR-III cells; stably transformed cell line 293T overexpressing EGFR III region protein
Protocol: HEK293T cells that express Region III of EGFR (i.e., HEK293T […] cells) were plated in a 96-well plate with 3×10⁵ cells/well, and then HEK293T […] cells were incubated with gradient diluted VHH-IgG4 antibody. After incubation for half an hour, anti-human IgG PE (Jackson Immuno Research, Code: 109-117-008, Lot:145501) as the secondary antibody for detection was added for incubation, and then CytoFLEX flow cytometer was used for detection. The EC50 of the antibody was calculated by curve fitting with Graphprism8.0 software. Isotype 1 in the figure is a negative control, and its amino acid sequence is shown as SEQ ID NO: 2 in CN106046152A.

[6] = biological target: T5, Rhesus macaque EGFR Protein, His Tag (Acro, Cat #EGR-C52H1) (rhesus macaque, UniProt P55245 25-645); assay: ELISA, coated antigen 1 ug/mL, antibody 50 nM
T5 construct: extracellular domain; Bought protein; also called Monkey EGFR; not shown: His tag
Protocol: (§3) ELISA was used to identify the binding of VHH-IgG4 antibodies to the extracellular domains of mouse EGFR, monkey EGFR, and human EGFR proteins. The detection steps were as follows: Mouse EGFR Protein, His Tag (Acro, Cat #EGR-M5224) and Rhesus macaque EGFR Protein, His Tag (Acro, Cat #EGR-C52H1) were diluted to 1 μg/mL with phosphate buffer, and 100 μL of each dilution was added to a 96-well ELISA plate and coated overnight at 4° C. The next day, the plates were washed twice with PBST (containing 0.5% TWEEN-20) and then blocked with 3% BSA at 37° C. for 1.5 h, followed by two washes with PBST. VHH-IgG4 antibodies were diluted to 50 nM, and 100 μL of the dilution was added to each well and incubated at 37° C. for 1 h. The plates were then washed three times with PBST, and 100 μL of HRP-labeled goat anti-human IgG Fc antibody (1:10000, Bethyl) was added to each well and incubated at 37° C. for another 40 min. After washing the plates four times with PBST, 100 μL of TMB substrate was added to each well, and the reaction was allowed to proceed for 3-5 min. The reaction was stopped by adding 100 μL of 3N hydrochloric acid per well. After stopping the reaction, the optical density at 450/650 nm was measured using a Tecan microplate reader.

[7] = biological target: T6, Mouse EGFR Protein, His Tag (Acro, Cat #EGR-M5224) (mouse, UniProt Q01279 25-647); assay: ELISA, coated antigen 1 ug/mL, antibody 50 nM
T6 construct: extracellular domain; Bought protein; not shown: His tag
Protocol: as §3

[8] = biological target: T7, EGFR-D4 (F481-S645, P00533-1 (uniprot)) his tag antigen (human, UniProt P00533 481-645); assay: ELISA: EGFR-D4 his tag antigen coated at 0.5 µg/mL, antibody at 2000, 200, 20, 2 nM, HRP goat anti-human IgG Fc, OD450
T7 construct: range 481-645; also called IV domain protein; EGFR-D4 protein; not shown: His tag
Protocol: as §1

[9] = biological target: T2, human EGFR.His antigen (Acro, Cat …); assay: ELISA: EGFR his tag protein coated at 1 µg/mL, antibody at 50, 5, 0.5, 0.05 nM, HRP goat anti-human IgG Fc, OD450
Protocol: as §1, with “After washing the plates four times with PBST, 100 μL of TMB substrate was added to each well, and the reaction was allowed to proceed for 3-5 min. The reaction was stopped by adding 100 μL of 3N hydrochloric acid per well.” left out

[10] = biological target: T3, EGFR on SKOV3 and Aspc-1 tumor cells; assay: flow cytometry on Aspc-1 tumor cells, anti-human IgG PE, MFI, curve fit; unit from the concentration axis and paragraph 62; the curve still rises at the highest concentration (MFI about 9000 at about 250 nM) [table]
Protocol: as §2

[11] = biological target: T3, EGFR on SKOV3 and Aspc-1 tumor cells; assay: flow cytometry on SKOV3 tumor cells, anti-human IgG PE, MFI, curve fit; unit from the concentration axis and paragraph 62; the curve still rises at the highest concentration (MFI about 9700 at about 250 nM) [table]
Protocol: as §2

binding result [1]: no binding (tested: 2000 nM)
Kd [2]: 6.82 nM
koff [2]: 0.000255 s⁻¹
kon [2]: 37400 M⁻¹ s⁻¹
EC50 [3]: 12 nM
EC50 [4]: 11 nM
EC50 [5]: 0.5 nM
OD450 [6]: 3.3 OD450
OD450 [7]: 3.13 OD450
B1: E006 VHH-IgG4 antibody (antibody, V domains shown, not shown: a dimerising Fc or GST)
VH: EVQLVESGGGLVQPGGSLRLSCTASGFTFDTYTTSWERQAPGKEREMVAVLATTGGKPYYVESVKGRFTISRDASETAVTLQMNNLKPEDTAVYYCKATSRSPVNPHNYSGQGTLVTVSS

binding result [1]: binds
OD450 [6]: 3.36 OD450
OD450 [7]: 0.08 OD450
binding result [8]: no binding (tested: 2000 nM)
binding result [9]: binds
B2: E009 VHH-IgG4 antibody (antibody, V domains shown, not shown: a dimerising Fc or GST)
VH: QVQLVESGGGLVQPGGSLRLSCEASGRIDIIFTMGWYRQTPGNEREFVASVTNYNAKYADSVKGRFTISRENTENTAYLQMNSLKPEDTAIYVCHLNYASDYTEYDYYGQGTQVTVSS

EC50 [10]: 58 nM
EC50 [11]: 74 nM
binding result [1]: no binding (tested: 2000 nM)
Kd [2]: 0.206 nM
koff [2]: 1.2e-05 s⁻¹
kon [2]: 57900 M⁻¹ s⁻¹
EC50 [5]: 0.32 nM
OD450 [6]: 3.3 OD450
OD450 [7]: 0.76 OD450
B3: E001 VHH-IgG4 antibody (antibody, V domains shown, not shown: a dimerising Fc or GST)
VH: EVQLVESGGGLVQPGGSLRLSCTPSGSGFTIQAMTWYRQAPGKQRELVAIIHQGGSTDYSDSVRGRFTISRDNAKTAWYLQMNNLKPEDTAVYYCNVVPPLRVWGQGTQVTVSS
